According to patent US20260098061A1, “EPHA2-BINDING PENDING PEPTIDE AND COMPOSITION COMPRISING SAME” (PeptiDream Inc., priority 2022, published 2026):
Numbered stars: 1 amine (or outer) side, 2 acyl side, 3 side chain; on linkers, the order of the positions; unused ones are H or OH. Bridge positions count the residues as written; N and C are the ends. Square brackets hold non-standard residues; d marks the D form. Primed or numbered codes have the meaning given here. Qglucamine = (2S)-2-amino-4-{[(2S,3R,4R,5R)-2,3,4,5,6-pentahydroxyhexyl]carbamoyl}butanoic acid, O=C(CC[C@H](N[*:1])C(=O)[*:2])NC[C@H](O)[C@@H](O)[C@H](O)[C@H](O)CO; KCOpipzaa″ = (2S)-2-amino-6-{[4-(carboxymethyl)piperazine-1-carbonyl]amino}hexanoic acid, O=C(NCCCC[C@H](N[*:1])C(=O)[*:2])N1CCN(CC(=O)[*:3])CC1; Hgn″ = (2S)-2-amino-5-carbamoylpentanoic acid (homoglutamine), NC(=O)CCC[C@H](N[*:1])C(=O)[*:2]; Hgn(3) = 2-amino-5-carbamoylpentanoic acid (homoglutamine), NC(=O)CCC[C@H](N[*:1])C(=O)[*:2]; Hgn = (2S)-2-amino-5-carbamoylpentanoic acid, NC(=O)CCC[C@H](N[*:1])C(=O)[*:2]; Trp(1-Me,7-Cl) = Cn1cc(C[C@H](N)C(=O)O)c2cccc(Cl)c21; dPhe(3-CONH2) = NC(=O)c1cccc(C[C@@H](N)C(=O)O)c1; Trp(1-Me) = Cn1cc(C[C@H](N)C(=O)O)c2ccccc21; NMe3Pal = CN[C@@H](Cc1cccnc1)C(=O)O; NMeF = CN[C@@H](Cc1ccccc1)C(=O)O; hArg = N=C(N)NCCCC[C@H](N)C(=O)O; hCit = NC(=O)NCCCC[C@H](N)C(=O)O; Gly(cBu) = N[C@H](C(=O)O)C1CCC1; NMeE = CN[C@@H](CCC(=O)O)C(=O)O

Columns and labels:
[1] = target: T1, Recombinant Human EphA2 Fc Protein (Homo sapiens, UniProt P29317); experiment: SPR interaction analysis (Biacore T200), kinetics of peptides against EphA2; type: binding; details: Recombinant Human EphA2 Fc Protein captured by Human Antibody Capture kit; single-cycle kinetics; 25° C.; HBS-P+ buffer with 1% DMSO
T1 construct: purchased Elabscience
In short: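 On a Biacore T200 at 25° C, Fc-tagged human EphA2 was captured via anti-human antibody; peptides ran as five serial dilutions in HBS-P+ pH 7.4 with 1% DMSO by single-cycle kinetics. Baseline-subtracted data fitted for ka and kd, from which KD was derived.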

[2] = target: T2, Recombinant Human EphA2 Fc Protein (Fc tag, Elabscience) (human, UniProt P29317 24-534); experiment: SPR Biacore T200, EphA2-Fc captured, single-cycle kinetics; grade, legend 0 < A ≤ 1 nM
T2 construct: Bought protein (Elabscience), captured with the Human Antibody Capture kit; also called hEphA2; not shown: Fc tag of the commercial protein
Protocol: The HBS-P+ buffer (10 mM HEPES (pH7.4), 150 mM NaCl, 0.05% (v/V) Surfactant P20) containing 1% DMSO was used as running buffer. Recombinant Human EphA2 Fc Protein (Fc tag, Elabscience) was captured by Human Antibody Capture kit (Cytiva). Peptide samples in DMSO were diluted with running buffer, and prepared five serial dilutions. Using these serial dilutions, kinetics of peptides against EphA2 was measured at a flow rate of 30 mL/min at 25° C. The method adopted for sample measurement was a single-cycle kinetics method. The analysis was conducted using the evaluation software 3.0 provided with Biacore T200. Kinetics fitting was done on the difference data obtained by subtracting the baseline data from sample measurement data. KD values were calculated based on the association rate constant (ka) and dissociation rate constant (kd).

T2 sequence (P29317 24-534 limits assumed): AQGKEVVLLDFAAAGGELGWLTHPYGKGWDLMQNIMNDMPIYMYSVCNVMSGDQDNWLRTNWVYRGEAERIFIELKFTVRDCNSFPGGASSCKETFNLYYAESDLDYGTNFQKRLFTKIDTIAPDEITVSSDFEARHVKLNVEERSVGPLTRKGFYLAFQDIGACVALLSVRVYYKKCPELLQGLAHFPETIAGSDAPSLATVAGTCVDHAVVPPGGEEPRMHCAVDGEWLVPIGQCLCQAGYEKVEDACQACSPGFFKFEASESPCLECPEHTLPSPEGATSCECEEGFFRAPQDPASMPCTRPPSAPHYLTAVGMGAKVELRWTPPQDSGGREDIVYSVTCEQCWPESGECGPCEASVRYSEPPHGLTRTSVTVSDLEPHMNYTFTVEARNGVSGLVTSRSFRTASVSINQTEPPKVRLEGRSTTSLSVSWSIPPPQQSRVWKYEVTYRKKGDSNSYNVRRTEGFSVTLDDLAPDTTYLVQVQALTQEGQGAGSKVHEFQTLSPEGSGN

`C[C@H]1SCC(=O)N[C@H](Cc2cccc(C(N)=O)c2)C(=O)N(C)[C@@H](Cc2cccnc2)C(=O)N[C@@H](CC(N)=O)C(=O)N[C@@H](C2CCC2)C(=O)N[C@@H](CCCC(N)=O)C(=O)N(C)[C@@H](CCC(=O)O)C(=O)N[C@@H](Cc2cn(C)c3c(Cl)cccc23)C(=O)N[C@@H](CCCCNC(=O)N2CCN(CC(=O)O)CC2)C(=O)N[C@@H](Cc2cn(C)c3ccccc23)C(=O)N[C@@H]1C(N)=O` [PDC_EphA2-00026611, df3CON-Me3Py-N-Cbg-Hgn-MeE-W1Me7Cl-KCOpipzaa-W1Me-C3RMe-NH2] was tested, and the Kd [1] was under 1 nM.

{CH2CO}-[dPhe(3-CONH2)][NMeF]N[Gly(cBu)][Hgn(3)][NMeE][Trp(1-Me,7-Cl)][hCit][Trp(1-Me)]T[hArg]C-NH2 (thioether N-12) [PDC_EphA2-00019427] was tested, and the Kd [2] was at most 1 nM.

B1: PDC_EphA2-00019437 (peptide)
peptide: {CH2CO}-[dPhe(3-CONH2)][NMe3Pal]N[Gly(cBu)][Hgn][NMe3Pal][Trp(1-Me,7-Cl)][Qglucamine][Trp(1-Me)]T[Hgn]C-NH2
modifications: thioether N-12
SMILES: C[C@@H](O)[C@@H]1NC(=O)[C@H](Cc2cn(C)c3ccccc23)NC(=O)[C@H](CCC(=O)NC[C@H](O)[C@@H](O)[C@H](O)[C@H](O)CO)NC(=O)[C@H](Cc2cn(C)c3c(Cl)cccc23)NC(=O)[C@H](Cc2cccnc2)N(C)C(=O)[C@H](CCCC(N)=O)NC(=O)[C@H](C2CCC2)NC(=O)[C@H](CC(N)=O)NC(=O)[C@H](Cc2cccnc2)N(C)C(=O)[C@@H](Cc2cccc(C(N)=O)c2)NC(=O)CSC[C@@H](C(N)=O)NC(=O)[C@H](CCCC(N)=O)NC1=O
B1 was tested, and the Kd [2] was at most 1 nM.

B2: PDC_EphA2-00019438 (peptide)
peptide: {CH2CO}-[dPhe(3-CONH2)][NMe3Pal]N[Gly(cBu)][Hgn″][NMe3Pal][Trp(1-Me,7-Cl)][KCOpipzaa″][Trp(1-Me)]T[Hgn″]C-NH2
modifications: thioether N-12
SMILES: C[C@@H](O)[C@@H]1NC(=O)[C@H](Cc2cn(C)c3ccccc23)NC(=O)[C@H](CCCCNC(=O)N2CCN(CC(=O)O)CC2)NC(=O)[C@H](Cc2cn(C)c3c(Cl)cccc23)NC(=O)[C@H](Cc2cccnc2)N(C)C(=O)[C@H](CCCC(N)=O)NC(=O)[C@H](C2CCC2)NC(=O)[C@H](CC(N)=O)NC(=O)[C@H](Cc2cccnc2)N(C)C(=O)[C@@H](Cc2cccc(C(N)=O)c2)NC(=O)CSC[C@@H](C(N)=O)NC(=O)[C@H](CCCC(N)=O)NC1=O
B2 gave a Kd [2] of at most 1 nM.
